According to the supplement of paper PMC9112550, “Optimization of the antimicrobial peptide Bac7 by deep mutational scanning” (BMC Biology, 2022):

Test system: Escherichia coli TOP10
Assay: shrunken log2 fold change of peptide-encoding DNA abundance (4.5 h post-induction vs induction); higher = less antimicrobial activity (less host growth inhibition)
Details: time post-induction: 4.5 h; library: site-saturation at positions 5, 18, 19, 20
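Also: peptides expressed intracellularly from a pBAD plasmid library in pooled LB shake-flask culture, induced with 0.3% L-arabinose, DNA abundance read by NGS, three biological replicates, DESeq2 with apeglm shrinkage.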

| Sequence | shrunken log2 fold change |
| --- | --- |
| RRIRVRPPRLPRPRPRPYATPRP | -0.124 |
| RRIRWRPPRLPRPRPRPMYYPRP | -0.32 |
| RRIRARPPRLPRPRPRPWGEPRP | -0.00466 |
| RRIRDRPPRLPRPRPRPAAAPRP | 1.35 |
| RRIRTRPPRLPRPRPRPVKHPRP | -0.411 |
| RRIRMRPPRLPRPRPRPFAFPRP | 0.0579 |
| RRIRNRPPRLPRPRPRPDRAPRP | 0.171 |
| RRIRQRPPRLPRPRPRPNEMPRP | 0.105 |
| RRIRARPPRLPRPRPRPWSQPRP | 0.149 |
| RRIRIRPPRLPRPRPRPAHFPRP | 0.0262 |
| RRIRDRPPRLPRPRPRPHGIPRP | -0.265 |
| RRIRNRPPRLPRPRPRPMDKPRP | 0.00658 |
| RRIRWRPPRLPRPRPRPGGIPRP | 0.22 |
| RRIRRRPPRLPRPRPRPIMNPRP | -0.347 |
| RRIRVRPPRLPRPRPRPNGPPRP | 0.144 |
| RRIRIRPPRLPRPRPRPHGQPRP | -0.0468 |
| RRIRQRPPRLPRPRPRPLRWPRP | 0.585 |
| RRIRKRPPRLPRPRPRPRKDPRP | 0.222 |
| RRIRMRPPRLPRPRPRPHWDPRP | -0.145 |
| RRIRSRPPRLPRPRPRPFFEPRP | -0.161 |
| RRIRTRPPRLPRPRPRPSEDPRP | -0.494 |
| RRIRDRPPRLPRPRPRPVIPPRP | 0.471 |
| RRIRFRPPRLPRPRPRPLVKPRP | -0.143 |
| RRIRLRPPRLPRPRPRPMGYPRP | -0.126 |
| RRIRIRPPRLPRPRPRPKFQPRP | -0.327 |

| Sequence | shrunken log2 fold change |
| --- | --- |
| RRIRERPPRLPRPRPRPTMTPRP | -0.389 |
| RRIRWRPPRLPRPRPRPRGSPRP | 0.495 |
| RRIRSRPPRLPRPRPRPKSTPRP | -0.556 |
| RRIRIRPPRLPRPRPRPVQNPRP | -0.425 |
| RRIRWRPPRLPRPRPRPNGNPRP | 0.0106 |
| RRIRDRPPRLPRPRPRPVHIPRP | -0.144 |
| RRIRHRPPRLPRPRPRPNSAPRP | -0.0296 |
| RRIRHRPPRLPRPRPRPKGFPRP | 0.0595 |
| RRIRFRPPRLPRPRPRPSCPPRP | -0.72 |
| RRIRQRPPRLPRPRPRPPGHPRP | 0.249 |
| RRIRQRPPRLPRPRPRPLHAPRP | 0.164 |
| RRIRRRPPRLPRPRPRPVFFPRP | 0.255 |
| RRIRQRPPRLPRPRPRPWMEPRP | -3.98e-05 |
| RRIRERPPRLPRPRPRPPPNPRP | 0.451 |
| RRIRNRPPRLPRPRPRPVCLPRP | -0.453 |
| RRIRHRPPRLPRPRPRPAAWPRP | 0.465 |
| RRIRWRPPRLPRPRPRPCIHPRP | -0.0458 |
| RRIRKRPPRLPRPRPRPTEFPRP | 0.00591 |
| RRIRPRPPRLPRPRPRPTEDPRP | -0.18 |
| RRIRFRPPRLPRPRPRPTMAPRP | 0.185 |
| RRIRCRPPRLPRPRPRPPLFPRP | 0.934 |
| RRIRHRPPRLPRPRPRPTSSPRP | -0.0142 |
| RRIRHRPPRLPRPRPRPVPPPRP | 0.244 |
| RRIRPRPPRLPRPRPRPFLEPRP | -0.214 |
| RRIRCRPPRLPRPRPRPQMPPRP | -0.0931 |

| Sequence | shrunken log2 fold change |
| --- | --- |
| RRIRARPPRLPRPRPRPKYLPRP | -0.299 |
| RRIRIRPPRLPRPRPRPRHDPRP | -0.385 |
| RRIRKRPPRLPRPRPRPCYQPRP | -0.42 |
| RRIRRRPPRLPRPRPRPFIQPRP | -0.0404 |
| RRIRHRPPRLPRPRPRPSPRPRP | 0.0803 |
| RRIRLRPPRLPRPRPRPCAAPRP | 0.236 |
| RRIRFRPPRLPRPRPRPFLEPRP | -0.355 |
| RRIRSRPPRLPRPRPRPNPKPRP | 0.0189 |
| RRIRHRPPRLPRPRPRPVKMPRP | -0.0874 |
| RRIRNRPPRLPRPRPRPVRMPRP | -0.132 |
| RRIRMRPPRLPRPRPRPWNNPRP | -0.964 |
| RRIRKRPPRLPRPRPRPNQSPRP | 0.341 |
| RRIRIRPPRLPRPRPRPEQTPRP | 0.0649 |
| RRIRTRPPRLPRPRPRPKTIPRP | -0.292 |
| RRIRNRPPRLPRPRPRPQKRPRP | -0.034 |
| RRIRCRPPRLPRPRPRPQFDPRP | -0.211 |
| RRIRDRPPRLPRPRPRPEGEPRP | -0.0124 |
| RRIRNRPPRLPRPRPRPQVRPRP | 0.05 |
| RRIRKRPPRLPRPRPRPYGQPRP | -0.306 |
| RRIRPRPPRLPRPRPRPEYLPRP | 0.0461 |
| RRIRNRPPRLPRPRPRPVVNPRP | -0.244 |
| RRIRDRPPRLPRPRPRPVTYPRP | -0.0305 |
| RRIRRRPPRLPRPRPRPLSAPRP | 0.444 |
| RRIRWRPPRLPRPRPRPYTSPRP | -0.0806 |
| RRIRYRPPRLPRPRPRPPSCPRP | -0.00175 |

| Sequence | shrunken log2 fold change |
| --- | --- |
| RRIRLRPPRLPRPRPRPGNGPRP | 0.0164 |
| RRIRCRPPRLPRPRPRPPYIPRP | -0.305 |
| RRIRFRPPRLPRPRPRPFAQPRP | -0.263 |
| RRIRSRPPRLPRPRPRPIIHPRP | -0.526 |
| RRIRARPPRLPRPRPRPNWVPRP | -0.361 |
| RRIRKRPPRLPRPRPRPVPGPRP | 0.515 |
| RRIRSRPPRLPRPRPRPVTPPRP | 0.0877 |
| RRIRWRPPRLPRPRPRPFFEPRP | -0.0187 |
| RRIRDRPPRLPRPRPRPNKKPRP | -0.117 |
| RRIRPRPPRLPRPRPRPAEEPRP | 0.2 |
| RRIRTRPPRLPRPRPRPVIRPRP | -0.176 |
| RRIRNRPPRLPRPRPRPTAAPRP | 0.543 |
| RRIRCRPPRLPRPRPRPRPFPRP | 0.176 |
| RRIRRRPPRLPRPRPRPLVCPRP | 0.177 |
| RRIRLRPPRLPRPRPRPSQHPRP | -0.169 |
| RRIRFRPPRLPRPRPRPHECPRP | 0.0366 |
| RRIRHRPPRLPRPRPRPQHYPRP | -0.483 |
| RRIRGRPPRLPRPRPRPGSCPRP | 1.03 |
| RRIRQRPPRLPRPRPRPVGRPRP | 0.336 |
| RRIRMRPPRLPRPRPRPFQHPRP | 0.0658 |
| RRIRCRPPRLPRPRPRPQDSPRP | -0.0482 |
| RRIRPRPPRLPRPRPRPYHAPRP | -0.19 |
| RRIRVRPPRLPRPRPRPNTDPRP | -0.626 |
| RRIRYRPPRLPRPRPRPPVKPRP | -0.102 |
| RRIRFRPPRLPRPRPRPLIIPRP | -0.575 |

| Sequence | shrunken log2 fold change |
| --- | --- |
| RRIRGRPPRLPRPRPRPYHVPRP | -0.0512 |
| RRIRPRPPRLPRPRPRPQGAPRP | 0.0965 |
| RRIRYRPPRLPRPRPRPEQQPRP | -0.0122 |
| RRIRARPPRLPRPRPRPGYIPRP | -0.383 |
| RRIRCRPPRLPRPRPRPHIEPRP | -0.856 |
| RRIRPRPPRLPRPRPRPEASPRP | 0.0221 |
| RRIRQRPPRLPRPRPRPFSRPRP | 0.00616 |
| RRIRPRPPRLPRPRPRPPNMPRP | -0.0209 |
| RRIRTRPPRLPRPRPRPTCQPRP | 0.234 |
| RRIRWRPPRLPRPRPRPEHCPRP | 0.177 |
| RRIRDRPPRLPRPRPRPGEMPRP | 0.163 |
| RRIRHRPPRLPRPRPRPTYFPRP | -0.309 |
| RRIRRRPPRLPRPRPRPMIVPRP | 0.00521 |
| RRIRQRPPRLPRPRPRPPSVPRP | 0.0958 |
| RRIRDRPPRLPRPRPRPQDEPRP | -0.166 |
| RRIRTRPPRLPRPRPRPAREPRP | 0.44 |
| RRIRPRPPRLPRPRPRPYMRPRP | -0.000384 |
| RRIRSRPPRLPRPRPRPLCYPRP | -0.535 |
| RRIRSRPPRLPRPRPRPRLLPRP | 0.229 |
| RRIRSRPPRLPRPRPRPMKLPRP | -0.0255 |
| RRIRSRPPRLPRPRPRPFTDPRP | -0.04 |
| RRIRGRPPRLPRPRPRPQNNPRP | -0.0456 |
| RRIRMRPPRLPRPRPRPSSKPRP | 1.87 |
| RRIRDRPPRLPRPRPRPAHAPRP | 0.0741 |
| RRIRNRPPRLPRPRPRPSAEPRP | 0.113 |

| Sequence | shrunken log2 fold change |
| --- | --- |
| RRIRHRPPRLPRPRPRPQCRPRP | -0.0351 |
| RRIRFRPPRLPRPRPRPPLVPRP | 0.23 |
| RRIRMRPPRLPRPRPRPVCDPRP | 0.367 |
| RRIRRRPPRLPRPRPRPGYHPRP | 0.456 |
| RRIRIRPPRLPRPRPRPNGNPRP | -0.365 |
| RRIRNRPPRLPRPRPRPPLEPRP | 0.193 |
| RRIRDRPPRLPRPRPRPLRWPRP | 0.274 |
| RRIRYRPPRLPRPRPRPGMEPRP | -0.0379 |
| RRIRLRPPRLPRPRPRPPEAPRP | 0.255 |
| RRIRCRPPRLPRPRPRPDNSPRP | -0.53 |
| RRIRVRPPRLPRPRPRPFKKPRP | -0.115 |
| RRIRVRPPRLPRPRPRPFQLPRP | 0.142 |
| RRIRLRPPRLPRPRPRPEKYPRP | -0.397 |
| RRIRERPPRLPRPRPRPKGKPRP | -0.0014 |
| RRIRARPPRLPRPRPRPDLSPRP | 0.209 |
| RRIRSRPPRLPRPRPRPRYFPRP | -0.0823 |
| RRIRKRPPRLPRPRPRPENEPRP | 0.918 |
| RRIRPRPPRLPRPRPRPPNFPRP | 0.0501 |
| RRIRIRPPRLPRPRPRPNCDPRP | -0.486 |
| RRIRKRPPRLPRPRPRPVTKPRP | 0.063 |
| RRIRVRPPRLPRPRPRPWWAPRP | -0.0894 |
| RRIRRRPPRLPRPRPRPMLVPRP | 0.196 |
| RRIRRRPPRLPRPRPRPNVEPRP | 0.318 |
| RRIRLRPPRLPRPRPRPPWCPRP | 0.402 |
| RRIRRRPPRLPRPRPRPRDTPRP | 0.6 |
